Article PMC7039556

Experiments:
[1] = target: isolated human low-density lipoprotein (LDL) particles; experiment: density gradient ultracentrifugation of PCSK9-LDL binding reactions, Western blot densitometry; conditions: conditioned cell culture medium incubated with LDL; n = 4; read off a plot
[2] = target: isolated human low-density lipoprotein (LDL) particles (human (endogenous in plasma)); experiment: co-sedimentation; Optiprep density gradient ultracentrifugation: 1 μg PCSK9 (concentrated conditioned medium) with 500 μg isolated human LDL in 1.0 ml HBS-C (25 mM HEPES-KOH pH 7.4, 150 mM NaCl, 2 mM CaCl2), 0.5% BSA, 37 °C 1 h; LDL fraction immunoprecipitated with anti-PCSK9 serum, PCSK9 quantified by Western blot and normalised to WT

Row | ratio to parent [1] | Substance | other results
1 | 1 | FLAG epitope-tagged recombinant human WT PCSK9 (proprotein convertase subtilisin/kexin type-9) (from UniProt Q8NBP7) Y38F | –
2 | 0.92 | FLAG epitope-tagged recombinant human WT PCSK9 (proprotein convertase subtilisin/kexin type-9) (from UniProt Q8NBP7) Y38L | –
3 | – | R469W and F515L substitutions (PCSK9) | percent decrease of LDL binding against WT PCSK9 [2]: 60 to 70%
4 | – | human PCSK9 with the hydrophobic stretch (aa 41–45) and Arg-46 replaced by a glycine-serine linker (from UniProt Q8NBP7 31-152; Q8NBP7 153-692) (natural protein) | percent reduction of LDL binding against WT PCSK9 [2]: > 60%
